Test results taken from the DeepSol protein solubility set.

Assay: soluble on expression in E. coli; label from the status in PepcDB or PDB records

Sequence	soluble on expression in E. coli
MSLTASQQPTASQDPTRIDALVIGAGFGGMYAVHKLSGMGLSVQGFEAGGDVGGVWYWNRYPGARCDLMSLDYCYSFSPDIEQEWTWSEQFAAQSEILAYANFVADRLDLRRHFLFETWVTGAAYDEAANVWRVTVDDGRVFEATYCVMASGPLSIPKGVPFDGADDFKGEILLAAKWPHTPVSFEGKRVGLVGTGSTGIQIVPEVAKTAGALTVFQRTPSFTLPMRNVTLEPDYVAELKRNYAGIRQVARNSPLGGVRPQSTRPFFSVTPEQRRALMEDSWARGGLSFLGTFSDLLVNPEANEQVAEFVRSKISEVVTDPVTAEKLKPRGYPIFARRPCLDTHYYETFNLPHVKLHDCLESPIVKITPAGLLTETGEVELDVLIFATGYDGLTGALLNFDVVGRGGLQLRDKWRDGAKSHLGLMIASFPNLFLVCGPNGPAALANIITLDQQNIDWIADAITHMRQEGLATIEPTEGAEQGWMDMVYGMAELTLVSKANTWYVGGNISGKPRGLSMYTGGFQRYSEACRLAAEKGYEDFVFEKAATKQGARSEGHHHHHH	soluble
MGSDKIHHHHHHMDASKNSDFKDTWLVVPCYNEATVIREVLENALKTFPNIVAVNDGSPDNSAEEIHAAGAHLVNHPVNLGQGAAIQTGIEYARKQPGAKYFVTFDADGQHQVKDVIRMVERLRAEDVDIIVGTRFGRPRQADDQVPLIKRLVLRTVVLLSPKTRRLGLTDAHNGLRVFNQKVAQEMNIRMNGMSHASEIVDQIDERGWRISEEPVDILYTEYSMSKGQSLLNGVNILADGFLARRLP	not soluble
MGSDKIHHHHHHLGFGAPKISNEEERLRALAEYRILGTQPEQCYDDITKIASLTCGTPISLMSLVDTDTQWFKSMCGFETKETSRDVSFCAHAIASSEPLIVEDALLDERFKSNPLVVEEPKIRLYAGFPLQTPNDQRIGTLCVIDRKPGHLSDHQHQIMEALSRQVVTLLELRKRSIRLLDALTHMHNTEGILTTCSYCKEVRDSDGEWQHLEKYLSKIADIRFSHGICDLCMEKHFPDVLEVWSDDKLDLNSKKNKPECKKSN	not soluble
MGSDKIHHHHHHMKKYSLTPAMLEVCKEYNFFSDVSGFMPLTSENIKEIKIGKKFAYSHQDNNKPTHQKLSKIIFENFLSNIPLNQSAIAYVKKKSYFDFIEPHRNNYFFLRIDLKDFFHSISEDLLKRTLSDYFSSESLSETIKQSNIDAIFTFLTVNLKSDSSNVKFLDKKILPIGFPLSPNLANIVFRKTDLLLEKLCDMHGVTYTRYADDMLFSSRGIMEKNLLFRKNNNYKKPYIHSDNFLSEIKYLVSIDGFFINHNKTIKSVNTLSLNGYTISGTNFPDIEGKIRLSNKKTKIIEKVIHEININPDDKVTFEKCFKKEFPKPKYEKNRDNFINNLCTIKINQKLLGYRSYLISIIKFNNKFNCISESSEDKYNTLLSKIENVIKKRIK	not soluble
MSRYCSECGKARKACLCPSIVALESAVELIILQHPTEQKRPLGTARILSLSLANCRLLVGEDFREHDELNQLLAEPDVDYYVLYPNEHAQECTKISLTTARKTRVILLDGTWKKAYKMWQINTQLHDLPSLHLPDECVGHYRIRKAPDDTALSTVEAGYHLLQQWQPERDFSPLLKVFDAMIQYQIDQMPEGVFERNYRQLEHHHHHH	not soluble
MIALHFGAGNIGRGFIGALLHHSGYDVVFADVNETMVSLLNEKKEYTVELAEEGRSSEIIGPVSAINSGSQTEELYRLMNEAALITTAVGPNVLKLIAPSIAEGLRRRNTANTLNIIACENMIGGSSFLKKEIYSHLTEAEQKSVSETLGFPNSAVDRIVPIQHHEDPLKVSVEPFFEWVIDESGFKGKTPVINGALFVDDLTPYIERKLFTVNTGHAVTAYVGYQRGLKTVKEAIDHPEIRRVVHSALLETGDYLVKSYGFKQTEHEQYIKNQRSLLKSFHFGRCDPRSEVTSQKTGRKCRLVGPAKKIKEPNALAEGIAAALRFDFTGDPEAVELQALIEEKDTAAYFK	not soluble
KQWVWSAESPIETNILKLLPKNQQNPVAEQAFESVSASMSDKVIFVITAPDKNALFAAAAEFDKGLRQSNHFRDVVGKISPQEQQAWASYYFKHRFQLLTPEQRERLSQNPEQQVQHVIQSLYNPFSGVTGQELQSDPFLLFRDYLSQVTQQSSSFRLDNGYLSVEKDGAQYLLITAELKESPYSLTGQLAVPDIQALEQSVAQKYGAEVAHTGVLFYADFGTQSAKSE	soluble
MKIALINENSQASKNHIIYDSLKEATDKKGYQLFNYGMRGEEGESQLTYVQNGLMAAILLNTKAVDFVVTGCGTGVGAMLALNSFPGVVCGLAVDPTDAYLYSQINGGNALSIPYAKGFGWGAELTLKLMFERLFAEEMGGGYPRERVIPEQRNARILNEVKQITHNDLMTILKIIDQDFLKDTISGKYFQEYFFENCQDDEVAAYLKEVLAK	soluble
MDFELCPKFEKTFSILGKKWNGLIIDVLLEDGPQRFKNLARRIPKCSDRVLVVRLKELEENGIVSRVTHCDSALIEYRLTTKGQDLRQVMDTVHNWSDKWFSPAES	not soluble
MRKPKITVIGGGTGIPVILNSLRHEEVDITAIVTVADDGGSSGAIRHVMQLTPPGDLRNVLVAMSDMPKFYERIFQYRFNAEDGALAGHPLGNLIIAGISEMQGSTYNAMQILSKFFHTTGKIYPSSEKALTLHAVFQDGQEVVGESQIAKHKGMIDHVYVANSYDDAKPTASRKVVDAIMESDMIVLGPGSLFTSILPNLVIDEIGKALCETEAEVAYVCNIMTQYGETEHFTDADHVRVLNRHLGQNFIDTVLVNVEKVPQDYMNSNQFDEYLIQVEHDFAGLQEQVPRVVSSNFLCLENGGAFHNGKSVVDELMNLIKVKELLEHHHHHH	not soluble
MLTLSFATGTEPNKWFTRFEERTDHGGLRTLSDDDPLSLLVDATADLALVRLPDPRMDNDDTVHVVELYQESMGVALPKEHTLTLLDVVEPSDLDGEIINYITPPSLEVDVAAVRAQLQMVAANVGVVIAPRPLLKVLSGKLVEHREFSDPQRYGQARTRIALVWKKERDGEDIQDFVGIAKGRTVQSSRQSNAKKVSAREKTLAKQKRRKEAGKKPVRKGGRRKR	not soluble
EKDKYALALKDKGNQFFRNKKYDDAIKYYNWALELKEDPVFYSNLSACYVSVGDLKKVVEMSTKALELKPDYSKVLLRRASANEGLGKFADAMFDLSVLSLNGDFNDASIEPMLERNLNKQAMSKLKEKFGDIDTATATPTELSTQPAKERKDKQENLPSVTSMASFFGIFKPELTFANYDESNEADKELMNGLSNLYKRSPESYDKADESFTKAARLFEEQLDKNNEDEKLKEKLAISLEHTGIFKFLKNDPLGAHEDIKKAIELFPRVNSYIYMALIMADRNDSTEYYNYFDKALKLDSNNSSVYYHRGQMNFILQNYDQAGKDFDKAKELDPENIFPYIQLACLAYRENKFDDCETLFSEAKRKFPEAPEVPNFFAEILTDKNDFDKALKQYDLAIELENKLDGIYVGIAPLVGKATLLTRNPTVENFIEATNLLEKASKLDPRSEQAKIGLAQMKLQQEDIDEAITLFEESADLARTMEEKLQAITFAEAAKVQQRIRSDPVLAKKIQET	soluble
IGNGGAERGTRNTLDIRTVAHREADGSYRIKGEKFYSTGALFAHWVSIKALDDNGKTVMAFIERGTQGLRIVDDWSGFGQRTTASGTVLLDDVSVPAKQVVP	not soluble
MGSDKIHHHHHHREEAPNAEADILSCRLPGVVMTTSPIITNNSINIFVGPGTDISSLAPEFTLTPGATIDPPSGTARDFHSPQQYTVTAADGFWKKKYTVSVIDTELATIYNFEDTLGGQKYYIFVEREGEKVVMEWASGNAGYAMTGVPKTADDYPTFQFANGKTGKCLSLVTRSTGFFGSIMGMPIAAGNLFIGSFDVGNAMSNPLKATKFGLPFRHIPTYLAGYYKYKAGDQFTEGGKPVSGKRDICDIYAIMYETSESVPTLDGTNAFTSPNLVSIARIDDAKETDEWTYFKLPFHMLSGKYIDKEKLTAGKYNVAIVFTSSLEGDHFNGAIGSTLLIDEVELIYRSED	not soluble
MGSDKIHHHHHHMMAMITDPDDFFTKGCGRCARFDTPDCSTRPWIDGLNALRRICFSMGLEETAKWAHPCYMHAGRNIALLGAFRSDFLISFLNAGLLVDKAGVLKTPGPNSQTPSVIRFTTVAEVEALEPTIRAYLRQLMDHAVAGTQPPKMAREIDLPDELVDALDADPVLAEAYHALTPGRQRSYLFALSQAKQSATRVARIEKFRDKIIAGKGALER	not soluble
MNEALSSGKVKNGEFLTVYLKEKLPDRLHYSQSYRIPPIIGMVGEGLIVRQNRTNAQECYGDHGYDNKFFSMRTIFVGHGSRFRRGKKVPSFENVQIYSVVADILGLRPAPNNGSSLFPRSILLPFRATRGLE	not soluble
MIDFSNIETYWPMTSSAFGLFITQGGLKPIFTSLNHMWYSKYGYLTERKAKLKEIENEYIYEIEKRKLENQEKFKNEIDCEFSKIPQTSLKEPVEYILYPAINESEQYLSNETLRNMFARTIASTFNQDKEKDLHSAFVQIIKQMTPLDAQNLLLINQEGNNLIANLQIGVHYSKENLSGTVNKANNIYLSKLDYSPDIIASSIDNLTRLGLIKVDYLHYPLDSNYESIKQTTIYKSLESEINTLNLFKTSNTKYDIKIEKGKVSLTDFGKKFISVCLE	not soluble
MANEKQYPMTKEGKEKLEQELEYLKTVKRKEVVERIKIARGFGDLSENSEYDAAKDEQAFVESRIQMLENMIRNAVIIEEDKENPDVVSLGKSVTFIELPDGEEETYTIVGSAEADPFEGKISNDSPIAKSLLGRRVGDEVTVQTPGGEMLVKIVAVK	soluble
MGSDKIHHHHHHMRIQQLRYLEKIATTGSINEAAKQLFISQPSLSQAMKELEKEYQVQLFYRHKTGITLTDAGREFINYSRSVLDQVNLLNEHFGQGTVRKRIFSVSAQHYAFVVNAFVELVKEIGGDTYQFTLRETETANVLNDVQTLKSELGVIYLNKFNQTVLSRLIADKDLSFVPLFEARPHVFVGRDNPLTHKQDLTLDDLRDYPYLSYEQGDTSSFYFAEEILSTLPHKKHIRISDRATIFNLMVGLNGYTISSGIISSELNDEKIVAIPLKVDDAMTLGYLRHKKIELSATAQRYLTLLKQHIQGYGFDVFNDN	not soluble
MKQPEEELQETLTELDDRAVVDYLRHHPEFFIRNAHAVEAMRVPHPVRGTVSLVEWHMARARNHINVLEENMTLLMEQAHANESLFYRLLHLQSRLVAADSLDEMLVRFHRWARDLGLAGATLRLFPDRWRLGAPSRYTHLALNRQAFEPLRIQRLGQSQHYLGPLNGPELLVVLPEAKAVGSVAMSMMGSDGGLGVILFSSRDPHHYQPGQGTQLLQEIALMLPELLERWIKRVLEHHHHHH	not soluble
MAHHHHHHMKGTLAGYTRGLHGQTKQTALVRVENVNTREDATWYVGKRVCYVYHGKKVKRCVRWSKAPARRSTTRALWGRVTRPHGNAGMMRVKFNGASVPASAIGRRIRVYLYPSQI	soluble
MSLIYFFMVDAVELSRKYEGKIEIYPKVPITSYNDFALIYTPGVAEVSKAIYKDPDKSFELTSRWNTIAVVTDGTRVLGLGNIGPTAAMPVMEGKSLLFKYLGGVDAIPLPINVKSADEFTNVVKALETSFGGINLEDIESPKCFYILEKLQSMLNIPVWHDDQQGTAAAILAGLINAMILTNKDPKESKVVFYGAGASNIAAARILAKYGFKYENIVMIDSKGPLYADREDVDHLMLHHKWKYELAIKTNKWEAKEIKDAFSGADAVVAASTPGPNVIKKEWISLMNKEAIVFALANPVPEIWPQDAKEAGAKIVATGRSDFPNQVNNSLIFPAIFRGVLDSRAKAITDEMTIAASEALAKYARDRGINENYIIPRMDEWEAFYEEAAAVASKAVELGLARVKKSREEFREIAKERIIRARKIMNLVISTWSPEGHHHHHH	not soluble
